B1: TPP-1008: PDA-6GS-HSA3-6GS-CD137D-His (bispecific antibody)
chain: EVQLVESGGGLVQPGRSLRLSCAASGFTFDDYALHWVRQAPGKDLEWVSGISWNGGSYGYADSVKGRFTISRDNAKNSLYLQMNSLRAEDTALYYCVREKGPGLTGSTADYYGLDAWGQGTMVTVSSGGGGSGGGGSGGGGSGGGGSGGGGSGGGGSEVQLLESGGGLVKPGGSLRLSCAASGFTVSSYTMNWVRQAPGKGLEWVSSISSSGRYIYYADSVKGRFTISRDNAKNSLYLQMNSLRAEDTAVYYCARDPRMVGNPHEFDIWGQGTMVTVSSGGGGSGGGGSGGGGSGGGGSGGGGSGGGGSEVQLVESGGGVVQPGGSLRLSCAASGFTFSNYGMHWVRQAPGKGLEWVAVISNDGNTKTYADSVKGRFTISRDNSKNTLYLQMNSLRAEDTAVYYCAQDETTTVTASYYFDYWGQGTLVTVSSAAAHHHHHH
B2: TPP-983: CD137A-6GS-HSA2-6GS-PDA2-His (bispecific antibody)
chain: EVQLVESGGGLVQPGGSLRLSCAASGFTLSNYWMNWVRQAPGKGLEWVANINQDGSERYYVDSVKGRFTISRDNAKNSLYLQMNSLRAEDTAVYYCARGGEGYGVDHYGLDVSGQGTTVTVSSGGGGSGGGGSGGGGSGGGGSGGGGSGGGGSEVQLVESGGGLVKPGGSLRLSCAASGFTFSNYNMNWVRQAPGKGLEWVSSISSAGTHIYYADSVKGRFTISRDNAKNSLYLQMNSLRAEDTAVYYCARDPHSTGWYKDFDYWGQGTLVTVSSGGGGSGGGGSGGGGSGGGGSGGGGSGGGGSEVQLVESGGGVVRPGGSLRLSCAASGFTFDDYAMSWVRQAPGKGLEWVSGITWNAGSTGYADSVKGRFTISRDNAKNSLYLQMNSLRAEDTALYYCVRDKYSYAWSYDDFDIWGQGTMVTVSSAAAHHHHHH
B3: TPP-982: CD137A-6GS-HSA2-6GS-PDA-His (bispecific antibody)
chain: EVQLVESGGGLVQPGGSLRLSCAASGFTLSNYWMNWVRQAPGKGLEWVANINQDGSERYYVDSVKGRFTISRDNAKNSLYLQMNSLRAEDTAVYYCARGGEGYGVDHYGLDVSGQGTTVTVSSGGGGSGGGGSGGGGSGGGGSGGGGSGGGGSEVQLVESGGGLVKPGGSLRLSCAASGFTFSNYNMNWVRQAPGKGLEWVSSISSAGTHIYYADSVKGRFTISRDNAKNSLYLQMNSLRAEDTAVYYCARDPHSTGWYKDFDYWGQGTLVTVSSGGGGSGGGGSGGGGSGGGGSGGGGSGGGGSEVQLVESGGGLVQPGRSLRLSCAASGFTFDDYALHWVRQAPGKDLEWVSGISWNGGSYGYADSVKGRFTISRDNAKNSLYLQMNSLRAEDTALYYCVREKGPGLTGSTADYYGLDAWGQGTMVTVSSAAAHHHHHH
B4: TPP-1012 PD138G7(G109D)-6GS-HSA1-6GS-CD137D-His (bispecific antibody)
chain: EVQLVESGGGVVRPGGSLRLSCAASGFTFDDYAMSWVRQAPGKGLEWVSGITWNGGSTGYADSVKDRFTISRDNAKNSLYLQMNSLRAEDTALYYCVRDKYSYAWSYDDFDIWGQGTMVTVSSGGGGSGGGGSGGGGSGGGGSGGGGSGGGGSEVQLVESGGGLVQPGRSLRLSCAASGFTFHHYAMHWVRQAPGKGLEWVSGISWNGNKITYADSVKGRFTISRDNAKNSLYLQMNSLRAEDTALYYCVRDSSLFIVGAPTFEHWGRGTLVTVSSGGGGSGGGGSGGGGSGGGGSGGGGSGGGGSEVQLVESGGGVVQPGGSLRLSCAASGFTFSNYGMHWVRQAPGKGLEWVAVISNDGNTKTYADSVKGRFTISRDNSKNTLYLQMNSLRAEDTAVYYCAQDETTTVTASYYFDYWGQGTLVTVSSAAAHHHHHH
B5: TPP-971: PDA2-6GS-HSA2-6GS-172E1-13-His (bispecific antibody)
chain: EVQLVESGGGVVRPGGSLRLSCAASGFTFDDYAMSWVRQAPGKGLEWVSGITWNAGSTGYADSVKGRFTISRDNAKNSLYLQMNSLRAEDTALYYCVRDKYSYAWSYDDFDIWGQGTMVTVSSGGGGSGGGGSGGGGSGGGGSGGGGSGGGGSEVQLVESGGGLVKPGGSLRLSCAASGFTFSNYNMNWVRQAPGKGLEWVSSISSAGTHIYYADSVKGRFTISRDNAKNSLYLQMNSLRAEDTAVYYCARDPHSTGWYKDFDYWGQGTLVTVSSGGGGSGGGGSGGGGSGGGGSGGGGSGGGGSEVQLVESGGGVVQPGGSLRLSCAASGFTFSNYGMHWVRQAPGKGLEWVAVISNDGNTKTYADSVKGRFTISRDNSKNTLYLQMNSLRAEDTAVYYCAQDETTTVTASYYFDYWGQGTLVTVSSAAAHHHHHH
B6: TPP-1009: PDA-6GS-hsa1-6GS-CD137D-His (bispecific antibody)
chain: EVQLVESGGGLVQPGRSLRLSCAASGFTFDDYALHWVRQAPGKDLEWVSGISWNGGSYGYADSVKGRFTISRDNAKNSLYLQMNSLRAEDTALYYCVREKGPGLTGSTADYYGLDAWGQGTMVTVSSGGGGSGGGGSGGGGSGGGGSGGGGSGGGGSEVQLVESGGGLVQPGRSLRLSCAASGFTFHHYAMHWVRQAPGKGLEWVSGISWNGNKITYADSVKGRFTISRDNAKNSLYLQMNSLRAEDTALYYCVRDSSLFIVGAPTFEHWGRGTLVTVSSGGGGSGGGGSGGGGSGGGGSGGGGSGGGGSEVQLVESGGGVVQPGGSLRLSCAASGFTFSNYGMHWVRQAPGKGLEWVAVISNDGNTKTYADSVKGRFTISRDNSKNTLYLQMNSLRAEDTAVYYCAQDETTTVTASYYFDYWGQGTLVTVSSAAAHHHHHH
B7: TPP-984: CD137D-6GS-HSA2-6GS-PDA-His (bispecific antibody)
chain: EVQLVESGGGVVQPGGSLRLSCAASGFTFSNYGMHWVRQAPGKGLEWVAVISNDGNTKTYADSVKGRFTISRDNSKNTLYLQMNSLRAEDTAVYYCAQDETTTVTASYYFDYWGQGTLVTVSSGGGGSGGGGSGGGGSGGGGSGGGGSGGGGSEVQLVESGGGLVKPGGSLRLSCAASGFTFSNYNMNWVRQAPGKGLEWVSSISSAGTHIYYADSVKGRFTISRDNAKNSLYLQMNSLRAEDTAVYYCARDPHSTGWYKDFDYWGQGTLVTVSSGGGGSGGGGSGGGGSGGGGSGGGGSGGGGSEVQLVESGGGLVQPGRSLRLSCAASGFTFDDYALHWVRQAPGKDLEWVSGISWNGGSYGYADSVKGRFTISRDNAKNSLYLQMNSLRAEDTALYYCVREKGPGLTGSTADYYGLDAWGQGTMVTVSSAAAHHHHHH
B8: TPP-975: CD137D-6GS-PDA2-6GS-HSA2-His (bispecific antibody)
chain: EVQLVESGGGVVQPGGSLRLSCAASGFTFSNYGMHWVRQAPGKGLEWVAVISNDGNTKTYADSVKGRFTISRDNSKNTLYLQMNSLRAEDTAVYYCAQDETTTVTASYYFDYWGQGTLVTVSSGGGGSGGGGSGGGGSGGGGSGGGGSGGGGSEVQLVESGGGVVRPGGSLRLSCAASGFTFDDYAMSWVRQAPGKGLEWVSGITWNAGSTGYADSVKGRFTISRDNAKNSLYLQMNSLRAEDTALYYCVRDKYSYAWSYDDFDIWGQGTMVTVSSGGGGSGGGGSGGGGSGGGGSGGGGSGGGGSEVQLVESGGGLVKPGGSLRLSCAASGFTFSNYNMNWVRQAPGKGLEWVSSISSAGTHIYYADSVKGRFTISRDNAKNSLYLQMNSLRAEDTAVYYCARDPHSTGWYKDFDYWGQGTLVTVSSAAAHHHHHH
B9: TPP-958: PD138G7(G109D)-6GS-172E1-13-6GS-HSA3-His (bispecific antibody)
chain: EVQLVESGGGVVRPGGSLRLSCAASGFTFDDYAMSWVRQAPGKGLEWVSGITWNGGSTGYADSVKDRFTISRDNAKNSLYLQMNSLRAEDTALYYCVRDKYSYAWSYDDFDIWGQGTMVTVSSGGGGSGGGGSGGGGSGGGGSGGGGSGGGGSEVQLVESGGGVVQPGGSLRLSCAASGFTFSNYGMHWVRQAPGKGLEWVAVISNDGNTKTYADSVKGRFTISRDNSKNTLYLQMNSLRAEDTAVYYCAQDETTTVTASYYFDYWGQGTLVTVSSGGGGSGGGGSGGGGSGGGGSGGGGSGGGGSEVQLLESGGGLVKPGGSLRLSCAASGFTVSSYTMNWVRQAPGKGLEWVSSISSSGRYIYYADSVKGRFTISRDNAKNSLYLQMNSLRAEDTAVYYCARDPRMVGNPHEFDIWGQGTMVTVSSAAAHHHHHH
B10: TPP-1011: PD138G7(G109D)-6GS-HSA3-6GS-CD137D-His (bispecific antibody)
chain: EVQLVESGGGVVRPGGSLRLSCAASGFTFDDYAMSWVRQAPGKGLEWVSGITWNGGSTGYADSVKDRFTISRDNAKNSLYLQMNSLRAEDTALYYCVRDKYSYAWSYDDFDIWGQGTMVTVSSGGGGSGGGGSGGGGSGGGGSGGGGSGGGGSEVQLLESGGGLVKPGGSLRLSCAASGFTVSSYTMNWVRQAPGKGLEWVSSISSSGRYIYYADSVKGRFTISRDNAKNSLYLQMNSLRAEDTAVYYCARDPRMVGNPHEFDIWGQGTMVTVSSGGGGSGGGGSGGGGSGGGGSGGGGSGGGGSEVQLVESGGGVVQPGGSLRLSCAASGFTFSNYGMHWVRQAPGKGLEWVAVISNDGNTKTYADSVKGRFTISRDNSKNTLYLQMNSLRAEDTAVYYCAQDETTTVTASYYFDYWGQGTLVTVSSAAAHHHHHH
B11: TPP-985: CD137D-6GS-HSA2-2-6GS-PDA2-His (bispecific antibody)
chain: EVQLVESGGGVVQPGGSLRLSCAASGFTFSNYGMHWVRQAPGKGLEWVAVISNDGNTKTYADSVKGRFTISRDNSKNTLYLQMNSLRAEDTAVYYCAQDETTTVTASYYFDYWGQGTLVTVSSGGGGSGGGGSGGGGSGGGGSGGGGSGGGGSEVQLVESGGGLVKPGGSLRLSCAASGFTFSNYNMNWVRQAPGKGLEWVSSISSAGTHIYYADSVKGRFTISRDNAKNSLYLQMNSLRAEDTAVYYCARDPHSTGWYKDFDYWGQGTLVTVSSGGGGSGGGGSGGGGSGGGGSGGGGSGGGGSEVQLVESGGGVVRPGGSLRLSCAASGFTFDDYAMSWVRQAPGKGLEWVSGITWNAGSTGYADSVKGRFTISRDNAKNSLYLQMNSLRAEDTALYYCVRDKYSYAWSYDDFDIWGQGTMVTVSSAAAHHHHHH
B12: TPP-957; PD138G7(G109D)-6GS-172E1-13-6GS-HSA2-His (bispecific antibody)
chain: EVQLVESGGGVVRPGGSLRLSCAASGFTFDDYAMSWVRQAPGKGLEWVSGITWNGGSTGYADSVKDRFTISRDNAKNSLYLQMNSLRAEDTALYYCVRDKYSYAWSYDDFDIWGQGTMVTVSSGGGGSGGGGSGGGGSGGGGSGGGGSGGGGSEVQLVESGGGVVQPGGSLRLSCAASGFTFSNYGMHWVRQAPGKGLEWVAVISNDGNTKTYADSVKGRFTISRDNSKNTLYLQMNSLRAEDTAVYYCAQDETTTVTASYYFDYWGQGTLVTVSSGGGGSGGGGSGGGGSGGGGSGGGGSGGGGSEVQLVESGGGLVKPGGSLRLSCAASGFTFSNYNMNWVRQAPGKGLEWVSSISSAGTHIYYADSVKGRFTISRDNAKNSLYLQMNSLRAEDTAVYYCARDPHSTGWYKDFDYWGQGTLVTVSSAAAHHHHHH

The binders below were run against human CD137 expressed on cells (Jurkat human CD137 NF-kB luciferase reporter cells; human CD8+ T cells) (human, UniProt Q07011 24-255) (assay: cell-based or functional assay).
In the case of B1, the “Jurkat-CD137/CHO-PD-1 Reporter Assay EC50” value is reported as 3.61 nM.
With B2 the “Jurkat-CD137/CHO-PD-1 Reporter Assay EC50” value was 0.556 nM.
In the case of B3, the “Jurkat-CD137/CHO-PD-1 Reporter Assay EC50” value is reported as 0.57 nM.
For B4, the “Jurkat-CD137/CHO-PD-1 Reporter Assay EC50” value was 5.29 nM.
B5 was tested, and the “Jurkat-CD137/CHO-PD-1 Reporter Assay EC50” value was 7.18 nM.
With B6 the “Jurkat-CD137/CHO-PD-1 Reporter Assay EC50” value was 34.7 nM.
B7 was tested, and the “Jurkat-CD137/CHO-PD-1 Reporter Assay EC50” value was 11.8 nM.
B8 was tested, and the “Jurkat-CD137/CHO-PD-1 Reporter Assay EC50” value was 11.5 nM.
In the case of B9, the “Jurkat-CD137/CHO-PD-1 Reporter Assay EC50” value is reported as 10.9 nM.
With B10 the “Jurkat-CD137/CHO-PD-1 Reporter Assay EC50” value was 4.11 nM.
With B11 the “Jurkat-CD137/CHO-PD-1 Reporter Assay EC50” value was 21.7 nM.
For B12, the “Jurkat-CD137/CHO-PD-1 Reporter Assay EC50” value was 11 nM.
